To fix the notation:
T1: human Y2 receptor (human, UniProt P49146 1-381)
T1 construct: whole, on cells; used as membrane fraction of CHO/dhfr- cells stably expressing hY2R; also called hY2R; human NPY2R
T1 sequence (looked up): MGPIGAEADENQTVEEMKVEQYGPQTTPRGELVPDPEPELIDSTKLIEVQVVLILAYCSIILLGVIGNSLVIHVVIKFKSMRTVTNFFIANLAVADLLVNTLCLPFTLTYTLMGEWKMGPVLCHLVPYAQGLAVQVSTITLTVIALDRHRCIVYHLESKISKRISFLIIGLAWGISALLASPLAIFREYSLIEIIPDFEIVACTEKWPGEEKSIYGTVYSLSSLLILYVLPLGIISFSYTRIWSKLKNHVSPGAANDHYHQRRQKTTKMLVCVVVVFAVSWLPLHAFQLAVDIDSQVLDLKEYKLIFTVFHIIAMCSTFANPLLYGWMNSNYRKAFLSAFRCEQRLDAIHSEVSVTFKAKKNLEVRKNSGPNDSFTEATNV

B1: Tetrahydro-2H-pyran-4-yl-carbamoyl-[D-Pro24, Cha27,36, Leu(Me)28, Lys30, Aib31]-PYY(23-36) (peptide)
peptide: X10-S[dP]RH[Cha][tBuAla]NK[Aib]TRQR[Cha]-NH2
SMILES: C[C@@H](O)[C@H](NC(=O)C(C)(C)NC(=O)[C@H](CCCCN)NC(=O)[C@H](CC(N)=O)NC(=O)[C@H](CC(C)(C)C)NC(=O)[C@H](CC1CCCCC1)NC(=O)[C@H](Cc1c[nH]cn1)NC(=O)[C@H](CCCNC(=N)N)NC(=O)[C@H]1CCCN1C(=O)[C@H](CO)NC(=O)NC1CCOCC1)C(=O)N[C@@H](CCCNC(=N)N)C(=O)N[C@@H](CCC(N)=O)C(=O)N[C@@H](CCCNC(=N)N)C(=O)N[C@@H](CC1CCCCC1)C(N)=O
notes: also called compound No. 229
B2: Ac-[D-Pro24, Cha27,28, Aib31, DL-Phe(2,6-Me2)36]-PYY(23-36) (peptide)
peptide: Ac-S[dP]RH[Cha][Cha]NL[Aib]TRQRX-NH2
modifications: not fully specified (residue 14); printed as Ac-Ser-D-Pro-Arg-His-Cha-Cha-Asn-Leu-Aib-Thr-Arg-Gln-Arg-DL-Phe(2,6-Me2)-NH2; also: residue 36 is DL racemic
notes: residue 36 is a DL racemate; also called compound No. 201
B3: Ac-[D-Pro24, Gln26, Cha27,36, Aib28,31, Lys30]-PYY(23-36) (peptide)
peptide: Ac-S[dP]RQ[Cha][Aib]NK[Aib]TRQR[Cha]-NH2
SMILES: CC(=O)N[C@@H](CO)C(=O)N1CCC[C@@H]1C(=O)N[C@@H](CCCNC(=N)N)C(=O)N[C@@H](CCC(N)=O)C(=O)N[C@@H](CC1CCCCC1)C(=O)NC(C)(C)C(=O)N[C@@H](CC(N)=O)C(=O)N[C@@H](CCCCN)C(=O)NC(C)(C)C(=O)N[C@H](C(=O)N[C@@H](CCCNC(=N)N)C(=O)N[C@@H](CCC(N)=O)C(=O)N[C@@H](CCCNC(=N)N)C(=O)N[C@@H](CC1CCCCC1)C(N)=O)[C@@H](C)O
notes: also called compound No. 221
B4: Ac-[D-Pro24, Phe26, Cha27,36, Aib28,31, Lys30]-PYY(23-36) (peptide)
peptide: Ac-S[dP]RF[Cha][Aib]NK[Aib]TRQR[Cha]-NH2
SMILES: CC(=O)N[C@@H](CO)C(=O)N1CCC[C@@H]1C(=O)N[C@@H](CCCNC(=N)N)C(=O)N[C@@H](Cc1ccccc1)C(=O)N[C@@H](CC1CCCCC1)C(=O)NC(C)(C)C(=O)N[C@@H](CC(N)=O)C(=O)N[C@@H](CCCCN)C(=O)NC(C)(C)C(=O)N[C@H](C(=O)N[C@@H](CCCNC(=N)N)C(=O)N[C@@H](CCC(N)=O)C(=O)N[C@@H](CCCNC(=N)N)C(=O)N[C@@H](CC1CCCCC1)C(N)=O)[C@@H](C)O
notes: also called compound No. 345
B5: Tetrahydro-2H-pyran-4-yl-carbamoyl-[Glu23, D-Pro24, Cha27,28,36, Lys30, Aib31]-PYY(23-36) (peptide)
peptide: X10-E[dP]RH[Cha][Cha]NK[Aib]TRQR[Cha]-NH2
SMILES: C[C@@H](O)[C@H](NC(=O)C(C)(C)NC(=O)[C@H](CCCCN)NC(=O)[C@H](CC(N)=O)NC(=O)[C@H](CC1CCCCC1)NC(=O)[C@H](CC1CCCCC1)NC(=O)[C@H](Cc1c[nH]cn1)NC(=O)[C@H](CCCNC(=N)N)NC(=O)[C@H]1CCCN1C(=O)[C@H](CCC(=O)O)NC(=O)NC1CCOCC1)C(=O)N[C@@H](CCCNC(=N)N)C(=O)N[C@@H](CCC(N)=O)C(=O)N[C@@H](CCCNC(=N)N)C(=O)N[C@@H](CC1CCCCC1)C(N)=O
notes: also called compound No. 230
B6: [(1S)-5-Amino-1-carboxypentyl]carbamoyl-[D-Pro24, Cha27,28,36, Aib31]-PYY(23-36) (peptide)
peptide: {((1S)-5-amino-1-carboxypentyl)carbamoyl}-S[dP]RH[Cha][Cha]NL[Aib]TRQR[Cha]-NH2
notes: calculated mass 1980.2 fits the name; also called compound No. 323
B7: [(1S)-1-carboxy-3-methylbutyl]carbamoyl-[Glu23, D-Pro24, Cha27,28,36, Lys30, Aib31]-PYY(23-36) (peptide)
peptide: X11-E[dP]RH[Cha][Cha]NK[Aib]TRQR[Cha]-NH2
SMILES: CC(C)C[C@H](NC(=O)N[C@@H](CCC(=O)O)C(=O)N1CCC[C@@H]1C(=O)N[C@@H](CCCNC(=N)N)C(=O)N[C@@H](Cc1c[nH]cn1)C(=O)N[C@@H](CC1CCCCC1)C(=O)N[C@@H](CC1CCCCC1)C(=O)N[C@@H](CC(N)=O)C(=O)N[C@@H](CCCCN)C(=O)NC(C)(C)C(=O)N[C@H](C(=O)N[C@@H](CCCNC(=N)N)C(=O)N[C@@H](CCC(N)=O)C(=O)N[C@@H](CCCNC(=N)N)C(=O)N[C@@H](CC1CCCCC1)C(N)=O)[C@@H](C)O)C(=O)O
notes: also called compound No. 254
B8: Ac-[D-Pro24, Tyr26, Cha27,36, Aib28,31, Lys30]-PYY(23-36) (peptide)
peptide: Ac-S[dP]RY[Cha][Aib]NK[Aib]TRQR[Cha]-NH2
SMILES: CC(=O)N[C@@H](CO)C(=O)N1CCC[C@@H]1C(=O)N[C@@H](CCCNC(=N)N)C(=O)N[C@@H](Cc1ccc(O)cc1)C(=O)N[C@@H](CC1CCCCC1)C(=O)NC(C)(C)C(=O)N[C@@H](CC(N)=O)C(=O)N[C@@H](CCCCN)C(=O)NC(C)(C)C(=O)N[C@H](C(=O)N[C@@H](CCCNC(=N)N)C(=O)N[C@@H](CCC(N)=O)C(=O)N[C@@H](CCCNC(=N)N)C(=O)N[C@@H](CC1CCCCC1)C(N)=O)[C@@H](C)O
notes: also called compound No. 346
B9: Ac-[D-Pro24, Trp26, Cha27,36, Aib28,31, Lys30]-PYY(23-36) (peptide)
peptide: Ac-S[dP]RW[Cha][Aib]NK[Aib]TRQR[Cha]-NH2
SMILES: CC(=O)N[C@@H](CO)C(=O)N1CCC[C@@H]1C(=O)N[C@@H](CCCNC(=N)N)C(=O)N[C@@H](Cc1c[nH]c2ccccc12)C(=O)N[C@@H](CC1CCCCC1)C(=O)NC(C)(C)C(=O)N[C@@H](CC(N)=O)C(=O)N[C@@H](CCCCN)C(=O)NC(C)(C)C(=O)N[C@H](C(=O)N[C@@H](CCCNC(=N)N)C(=O)N[C@@H](CCC(N)=O)C(=O)N[C@@H](CCCNC(=N)N)C(=O)N[C@@H](CC1CCCCC1)C(N)=O)[C@@H](C)O
notes: also called compound No. 347
B10: Ac-[Glu23, D-Pro24, Cha27,28, Lys30, Aib31, Phe(2Me)36]-PYY(23-36) (peptide)
peptide: Ac-E[dP]RH[Cha][Cha]NK[Aib]TRQR[Phe(2-Me)]-NH2
SMILES: CC(=O)N[C@@H](CCC(=O)O)C(=O)N1CCC[C@@H]1C(=O)N[C@@H](CCCNC(=N)N)C(=O)N[C@@H](Cc1c[nH]cn1)C(=O)N[C@@H](CC1CCCCC1)C(=O)N[C@@H](CC1CCCCC1)C(=O)N[C@@H](CC(N)=O)C(=O)N[C@@H](CCCCN)C(=O)NC(C)(C)C(=O)N[C@H](C(=O)N[C@@H](CCCNC(=N)N)C(=O)N[C@@H](CCC(N)=O)C(=O)N[C@@H](CCCNC(=N)N)C(=O)N[C@@H](Cc1ccccc1C)C(N)=O)[C@@H](C)O
notes: also called compound No. 256
B11: Ac-[Glu23, D-Pro24, Cha27,28, Lys30, Aib31, Phe(3Me)36]-PYY(23-36) (peptide)
peptide: Ac-E[dP]RH[Cha][Cha]NK[Aib]TRQR[Phe(3-Me)]-NH2
SMILES: CC(=O)N[C@@H](CCC(=O)O)C(=O)N1CCC[C@@H]1C(=O)N[C@@H](CCCNC(=N)N)C(=O)N[C@@H](Cc1c[nH]cn1)C(=O)N[C@@H](CC1CCCCC1)C(=O)N[C@@H](CC1CCCCC1)C(=O)N[C@@H](CC(N)=O)C(=O)N[C@@H](CCCCN)C(=O)NC(C)(C)C(=O)N[C@H](C(=O)N[C@@H](CCCNC(=N)N)C(=O)N[C@@H](CCC(N)=O)C(=O)N[C@@H](CCCNC(=N)N)C(=O)N[C@@H](Cc1cccc(C)c1)C(N)=O)[C@@H](C)O
notes: also called compound No. 259

Non-standard residues stand in square brackets, D forms with d. *: point of attachment. X11 = ((1S)-1-carboxy-3-methylbutyl)carbamoyl, CC(C)C[C@H](NC(=O)*)C(=O)O; X10 = Tetrahydro‑2H‑pyran‑4‑yl‑carbamoyl, O=C(NC1CCOCC1)*; Phe(3-Me) = Cc1cccc(C[C@H](N)C(=O)O)c1; Phe(2-Me) = Cc1ccccc1C[C@H](N)C(=O)O; tBuAla = CC(C)(C)C[C@H](N)C(=O)O; Cha = N[C@@H](CC1CCCCC1)C(=O)O; Aib = CC(C)(N)C(=O)O

This is an account of results in patent publication US20120172293A1 (Takeda / Millennium, published 2012).

The target of one assay is T1, human Y2 receptor. Description: RBA: displacement of [125I]-PYY from hY2R/CHO membranes. Here is the method:
After incubation at room temperature for 60 minutes, the mixture was filtered through the cell harvester FilterMate (PerkinElmer) using UniFilter-96 GF/C treated with polyethylenimine (PEI) solution (20 mM Tris, 0.3% PEI, pH 7.4), and the filter was washed 3 times with a filtering buffer (50 mM Tris, 5 mM MgCl₂, 150 mM NaCl, 0.03% NaN₃, 0.05% CHAPS, pH 7.4). Thereafter, UniFilter-96 GF/C was dried in a mechanical drier for 1 hour, 15 μl of the liquid scintillator MicroScint O (PerkinElmer) was added to each well, and a measurement was taken using TopCount (PerkinElmer). The data obtained were analyzed using Prism to calculate the IC₅₀ value.
(In general: In a radioligand displacement assay an active substance lowers the binding of a labelled ligand.)
As to B1, the “IC50 Ratio” value is 0.45 IC50 compound/IC50 PYY(3-36).
The same measure, in the same setting: with B2 the figure was 1.6 IC50 compound/IC50 PYY(3-36); with B3, 3.1 IC50 compound/IC50 PYY(3-36); with B4, 1.1 IC50 compound/IC50 PYY(3-36).
Still for that read-out and setting: with B5 the figure was 0.89 IC50 compound/IC50 PYY(3-36); with B6, 1.3 IC50 compound/IC50 PYY(3-36).
Same read-out and setting: with B7 the figure was 2.8 IC50 compound/IC50 PYY(3-36); with B8, 1 IC50 compound/IC50 PYY(3-36).
For the molecule B9, the “IC50 Ratio” value is 0.76 IC50 compound/IC50 PYY(3-36).
Same read-out and setting: with B10 the figure was 1.7 IC50 compound/IC50 PYY(3-36); with B11, 1.1 IC50 compound/IC50 PYY(3-36).

The target of a further assay is T1, human Y2 receptor. Briefly: cell-based or functional assay.
B1: the “GBA EC50 Ratio ([35S]GTPγS binding)” value is 0.5 EC50 compound/EC50 PYY(3-36).
The same measure, in the same setting: then B2, with 2 EC50 compound/EC50 PYY(3-36); and B3, with 1.4 EC50 compound/EC50 PYY(3-36); and B4, with 1.4 EC50 compound/EC50 PYY(3-36).
The same measure, in the same setting: then B5, with 2.5 EC50 compound/EC50 PYY(3-36).
On to B6, for which the “GBA EC50 Ratio ([35S]GTPγS binding)” value was 0.95 EC50 compound/EC50 PYY(3-36).
Still for that read-out and setting: then B7, with 1.5 EC50 compound/EC50 PYY(3-36).
On to B8, for which the “GBA EC50 Ratio ([35S]GTPγS binding)” value was 1.3 EC50 compound/EC50 PYY(3-36).
Still for that read-out and setting: with B9 the figure was 1.3 EC50 compound/EC50 PYY(3-36); with B10, 1.2 EC50 compound/EC50 PYY(3-36); with B11, 0.93 EC50 compound/EC50 PYY(3-36).
